Source: patent publication US20230226096A1 (Orna Therapeutics, Inc., priority 2020, published 2023)

Tested on: HEK293 cells
Format: cell-based, human
Conditions: luminescence from secreted Gluc in supernatant 24 hours after transfection of HEK293 cells; circular RNA encoding Gluc with the named IRES (UTR truncated to 675 nt)

B1: Lesavirus 2 (nucleic acid)
DNA: TCTTTCTTTATTTTCTTATGTAACTCTTCTTTTTAAGTTTTATTTTGCCTACTTGTGAGCTTATGCGGGACCACTGTCTTAGACAACCCCACATTTGTCATGAGTAAGTACACGCAACCATTACGATTACTTTTTAACCGTCTGACCTTTTGATAACAACTGAAGTTAGGCGTGAAACATGCATTTATACCAAAGTAGCCCCGCATTTCCCCACTACGGTGGGGGGGCTACCCTACTGGCTTTGGAACTGTAGCCATTATGTGTTGCCTGGCTTTCAGGATCTCACAACACAACAGTTCTCTCACAATGGAATATGGGTGAGATTGCAGTGACATGAACAAGTATCTAGTAGTACATAGACTCAAGCCTAGTTGCCTGCGGAACAACATGTGGTAACACATGCCCCAGGGTCCAAAAGACAAGGGTTAACAGCCCCTTCTAGGTGTCTGTGTGTGAAGAATACTTTAGTAGTGTTGTTATGATCTCACCTGTTAGTACAGAATGAGTATGGCTTGGTGAAGGATGTCCTACAGGTACCCATTATATGGATCTGAGTAGGAGACCACTAGTGGTGGCTTTACCGCCAGGTGAGTGGTTTAAAAAGCGTCTAGCCAAGCCAACAGCACTAGGGATAGTGCTTTCTATATTTTATATTTTCAGTGTATATGGTGACAA
In the case of B1, the Expression is reported as 3.67E+07.

B2: Lesavirus 1 (nucleic acid)
DNA: GTAACTAATAAGCAAGTTTTACTGCCTGCAAACTGCTTCAATGGGACCACCGCTTCGGCGACCCCTTTGTTGAGTTTGTATGTTTTTAAGTAATCTTTGCAACCATACGATTATTTTAGCCGCCTCTCTATAATGATCTTGTTATAGTGGGACGTGAAACATTGGTTTTTCTCACACACGTCCGGTCACCCGGGCGTGTGTTCTTCCGTAAGTCCTATCCACATACCATCGTGGGTAGGCCAGCATGTTTGCACAGGCTGTGACAGTGTGGGTGGGCTTTCCACCTCTCAACAACACACTGAATTGCAATGCACTCACGGAGGAAATGACAATTTGGTTATAGTTTTGAACTGTGCTAGTAATTTCTTTCACATTAAGCCATGTTGCCTGCGGAATCACATGTGGTAACACATGCCTCAGGGCCCAAAAGGCACGGGTTAGCAGCCCCTTCATGGTGTGTTAGAAGTGAAAACACATAGTATGAGCTATAATATCTTTGTTGTCTTCTCTGTAGTGTACCCCGCCAAATGTAAGGATGCCCAGCAGGTACCCATTTTATGGATCTGAGCTGGGGATTGATAGTGTATCTATAAATGCACTGATCAATTTAAAAAGCGTCTAAGTTTGGCACAAACACTGGGGACAGTGTTTTTCCTTTATTCTTTTATTTGATTA
In the case of B2, the Expression is reported as 6.37E+06.

B3: Phopivirus strain NewEngland (nucleic acid)
DNA: GGGAGTAAACCTCACCACCGTTTGCCGTGGTTTACGGCTACCTATTTTTGGATGTAAATATTAATTCCTGCAGGTTCAGGTCTCTTGAATTATGTCCACGCTAGTGGCACTCTCTTACCCATAAGTGACGCCTTAGCGGAACCTTTCTACACTTGATGTGGTTAGGGGTTACATTATTTCCCTGGGCCTTCTTTGGCCCTTTTTCCCCTGCACTATCATTCTTTCTTCCGGGCTCTCAGCATGCCAATGTTCCGACCGGTGCGCCCGCCGGGGTTAACTCCATGGTTAGCATGGAGCTGTAGGCCCTAAAAGTGCTGACACTGGAACTGGACTATTGAAGCATACACTGTTAACTGAAACATGTAACTCCAATCGATCTTCTACAAGGGGTAGGCTACGGGTGAAACCCCTTAGGTTAATACTCATATTGAGAGATACTTCTGATAGGTTAAGGTTGCTGGATAATGGTGAGTTTAACGACAAAAACCATTCAACAGCTGTGGGCCAACCTCATCAGGTAGATGCTTTTGGAGCCAAGTGCGTAGGGGTGTGTGTGGAAATGCTTCAGTGGAAGGTGCCCTCCCGAAAGGTCGTAGGGGTAATCAGGGGCAGTTAGGTTTCCACAATTACAATTTGAA
For B3, the Expression was 1.06E+05.

B4: Pestivirus strain Aydin (nucleic acid, listed as Pestivirus sp.)
DNA: GTATACGAGATTAGCTCATACTCGTGTACAAATTGGACGTAGCAAATTTAAAAATTCGGATAGGGTCCCCATCCAGCGACGGCCGAACGGGGTTAACCATACCTCTAGTAGGACTAGCAGACGGATGGACTAGCCACAGTGGTGAGCTCCCTGGGAGGTCTAAGTTCTGAGTACAGAACAGTCGTCAGTAGTTCAACGCTGGTAAACCCCAGCCTTGAGATGCTACGTGGACGAGGGCATGCCCAAGACACACCTTAACCTGGACGGGGGTCGTCCAGGTGAAAGTACCCATCTTTGGGTGCTGGGAGTACAGCCTGATAGGGCGCTGCAGAGGCCCACTGACAGGCTAGTATAAAAATCTCTGCTGTACATGGAAC
Molecule B4 has an Expression of 3.11E+06.

B5: Quail picornavirus QPV1 (nucleic acid)
DNA: TTTGCATCAGTTCGCCCCTCCCCTCACCATACCTTTTTCCCCTCTTTAGGACTGATACTTGGTTATGATGAGCAGAGGATTTCGCAAGTTATGCTTCTTGATAAAAAGTAATTCACGAATCATGGGATTATAGCCTGGAAGTGAACACTCATGTGGCAAGTGGGTTAGTAGCTCTCCATGTTCCCATGTGCAGTGGACTGACAACAGTGAGTTCGGGGTTGTGTAGTAAAGGGAAAGTATTACTTACCCGCACCTGCTATACGTGGTGTACGTAGGATACGAGTTAGTAGTGCTTAGCAACTTTAAACTGGTGCTGAAATATTGCAAGGTCACTGAAGTTGTGAACGCGAACGCTCCGCCACTGCCATGTATAGCGTGCAATGCATAAATGGTGCACTACATGATACGAGGGAATGGGAAACCCTCCATGGCCGAATGCAGGGTGACAGCCTGCCGGCGGATGCCTGTTGTTAGTATAATCCGTTGTTTGCCAC
For B5, the Expression was 6.55E+07.

B6: Ludopivirus (nucleic acid, listed as Ludopivirus sp.)
DNA: TAGACCCCCACCTAGCCCTTTTCCCCGTCAGTGGGGGGCTTACTCACTGGGCATCTGTTAATCTGGCCTAACTAGATTGACACCACTCCCTTGGAACGTAACTCCACGCTAACTCACTGGCTCTACGCACAGACACACGGTCTTTCTGCTATCCCCGGGGAAGATACCAGATGGCGACCGGCTGTCCCAGCGGCCTAGTAGCTACTCGGGTTGAGTACCCACCACGGTTTTGACGCCTGCTAAAATTCAAGAGACAGAGGTAGGGGTGCTTAGTGTGTGGGGGAAGTTCCCACAAGCGAGGCAAAGCATTGCTCCCTCGCGTCACCGGGTGCAAGGTAAATTGGCTGGACTTCCGCTCTACCCTTGCTACTCGCCCTCTTCGGAGGGTTCGAAGTGACACTAGGTATACGCATGGTTGGGAAACCATGCCTGGCCTACTACTGGGTGATAGCCTGGCGGCGGGTCCGTCTCTTGGCTTATACCCGTTGATTTGGGAT
Molecule B6 has an Expression of 1.05E+05.

B7: Porcine reproductive and respiratory syndrome virus 2 (nucleic acid)
DNA: ATGACGTATAGGTGTTGGCTCTATGCCTTGGCATTTGTATTGTCAGGAGCTGTGACCATTGGCACAGCCCAAAACTTGCTGCACAGAAACACCCTTCTGTGATAGCCTCCTTCAGGGGAGCTTAGGGTTTGTCCCTAGCACCTTGCTTCCGGAGTTGCACTGCTTTACGGTCTCTCCACCCCTTTAACC
B7 gave an Expression of 1.29E+05.

B8: Porcine enterovirus 9 (nucleic acid, listed as Enterovirus sp.)
DNA: GAACCTTAGAAGTTTACACAAACAAAGACCAATAGGAGTCCAACACCCAGTTGGATTGCGGTCAAGCACTTCTGTTTCCCCGGACCTAGTAGTGATAGGCTGTACCCACGGCCGAAGATGAACCCGTCCGTTATCCGGCTACCTACTTCGGGAAGCCTAGTAACATTCTGAAGTCTCTGAGGCGTTTCGCTCAGCACGACCCCGGTGTAGATCGGGCTGATGGGTCTCCGCATACCCCACGGGCGACCGTGGCGGAGGCCGCGTTGGCGGCCCGCCTATGGCGAAAGCCATAGGACGCCTCTTAGATGACAGGGTGTGAAGAGCCTACTGAGCTGGGTAGTAGTCCTCCGGCCCCTGAATGCGGCTAATCCTAACCACGGAGCGTCCACCAGCAATCCAGCTGGCAGGGCGTCGTAACGGGCAACTCTGTGGCGGAACCGACTACTTTGGGTGTCCGTGTTTCCTTTTGATCCTATTTTGGCTGCTTATGGTGACAACGATAAGTTGTTATCATAAAGCTCTTGGGTTGGCCACCTGGAAAAAGTTATCAGTGTTTGATATTGTTCGGCTCTCACGCCTACCAATAAGACAAGCCCTATATTTACTTGTTGCATTTTACTCGTCAGAAGAAATCACAGAGTATCATTTGGATTTGTTACTCACATTAAGGACAAG
B8 gave an Expression of 3.20E+07.

B9: Pigeon picornavirus B (nucleic acid)
DNA: TTTATTTAGCTGTTAAGTTTTATTTGTGCCGAGACCCCATAGTAGGATCTTGGTGTTCCACATTAAGCTCTCCCGACCACACATCCAAACGATAGGCGGTGTAAGGGCTCCCTGGCTAAGTGTTTACTCATTGCTAGGGAAGTGTTGCGACCCGTTACCAGTAGGAATACAGGAGGTCTTAGTTGCCTAACCAGATAAAGTGGTGCTGAAATATTGCAAGCTCAATGTCTGGCGAACGACGGACTACCGTTGAACTATTGTTAACGCCCGCGTGTGTAGGCAACACACGGGTTAGTAGGTCACTTACATTGACATCCGTGCCGGGAAAGCGGATCTGAGCTATCGATTGCCTGATAGGGTGCCGGCGGGCGCGGTACGTGTGGTATAGTCCGCTGTCTTGGGGTATGGCGTCTACTCGGTTTTGTTGTCGTTTTGGAATGTCCCATGTCGGAGATGTCGTTACCGGTGTTTGCTTTACTTGTGCACGAATAAGAAAACAGAGTTTGGAGTTTTGGAAGTTAATGGATAACATCAAGTTTCCATTGCGTTCCTCGTGCATTTTAGGCCAGAAAATCGACCACAAAATCGAGA
With B9 the Expression was 1.24E+05.

B10: Picornavirus HK21 (nucleic acid)
DNA: AAACGGGAGGATCGGCTTTGGCTTATCCTCTTAATAGTCTACAAAACTGGGCTGACTGGTGGGGGAGCTACTAGATCCGGGAGAGGACTAGTTACCCCGCGTAACTTCCCTTTTTGTCACTCCCTCCACCTACCCCTTCCCTGTCCCTTAGACTCTTAAGTAGGTGTGCAGGCCTGGCCCCCCGGAAATGGGCAAATCGGACGTTTGCGTGTAGGGTCGTTCTGAAAGGTGGGGCCCACTCCACCGTAGTAGGATCTTCCTGTTTCACGTTTAAACCTCTCCGGGCAGGTATCGCTAGACACTAGGCTGTATAGGATGGCACGCACTTAGGTTTCGCACCTTCCTAGTGCGCCAAGATCCCGCTTTTGAGCTCAAGTACATGGTTCTTTGTAAGATGTCTAACCAGAGGAGGTGGTGCTGAAATATTGCAAGCCACTCTGGCGAACGTCCACTGCATTGCCTGGAACAGGCTCTCTAGCGCCCTCCACTGGTAGCGCGGTGGTGGGTTAGTAGGATACCTATATGGACAGGGGATGCGGGAATACCCCTCACTAGCTAGTGACTGGTTGATCGACTGGCGGCGGATCCAGTGATACTTGCATAATCCGCAGACTTGGGAG
B10 showed an Expression of 4.09E+05.
